In the Human Domainome abundance scans (Beltran et al. 2025):

B1: Tudor domain-containing protein 3, residues 554 to 611; numbered along this chain, Q9H7E2 (parent)
chain: KMWKPGDECFALYWEDNKFYRAEVEALHSSGMTAVVKFIDYGNYEEVLLSNIKPIQTE

Variants of: B1
Assay: abundance fitness (aPCA) (normalised: wild type 0, dead -1); higher = more abundant; growth selection in yeast, the domain comes from the species named
Conditions: Homo sapiens

Abundance fitness, by site and new letter:
G42: S -0.378, L -0.492, C -0.315, R -0.607, Q -0.345, D 0.059, P -0.11, W -0.695, E 0.005, T -0.736, K -0.407, M -0.319, A -0.305, V -0.926, H -0.395
I52: W -0.81, C -0.37, R -0.938, L 0.032, M 0.028, Q -1.01, A -0.824, E -0.911, P -0.639, V -0.184, D -0.857, H -1.04, T -0.686, K -0.974, Y -0.923, G -0.895, S -0.853, F -0.906
I39: C -0.081, N -0.255, D -0.469, P -0.278, W -0.361, K 0.044, L -0.05, M -0.093, Y -0.006, F -0.083, S -0.111, T -0.034, Q -0.082, G -0.361, A -0.036, R -0.097
P54: C -0.429, E -0.006, F -0.701, H -0.181, D -0.229, G -0.332, A -0.162
K53: C -0.238, Y -0.214, T -0.109, H -0.213, E -0.261, G -0.711, R 0.008, A -0.276, V -0.194, W -0.242, L -0.217, Q -0.12, F -0.229, I -0.145, P -0.809, D -0.659, M -0.192, N -0.378
E45: Y -0.38, G -0.101, N -0.368, L -0.53, K -0.43, V -0.392, M -0.586, A -0.041, F -0.768, H -0.333, Q -0.13, R -0.107, P -1.02, C -0.262, T -0.398, W -0.788, I -0.975
A34: K -0.646, W -0.882, Q -0.575, Y -0.897, L -0.404, H -0.861, G -0.413, I -0.76, E -0.976, R -0.85, P -1.04, M -0.358, T -0.948, S -0.73, N -0.781, V -0.078, F -0.919
E46: F -0.697, Y -0.324, W -0.259, G -0.88, S -0.029, R -0.138, I -0.488, L -0.327, H -0.308, M -0.342, D -0.149, C -0.279, P -0.465, K -0.205, Q -0.055
V36: K -0.843, G -0.833, Q -0.73, I -0.295, N -1.11, A -0.92, S -0.913, L -0.571, R -0.88, F -0.964, D -0.996, W -0.833, H -0.838, T -0.777, C -0.584
N43: V 0.035, T 0.073, M -0.108, G -0.162, P -0.563, F -0.052, K 0.093, E -0.079, L 0.01, H -0.073, C -0.059, S -0.045, D -0.259, Y 0.003, W -0.059, R 0.091
D40: N -0.187
V35: H -0.403, R 0.129, W -0.087, Y -0.092, C -0.162, T 0.104, E -0.227, I -0.16, P -0.973, S -0.032, K 0.104, Q 0.058, G -0.384, M -0.079, F -0.186, N -0.211, L -0.011, D -0.426, A -0.277
N51: K -0.418, Y -0.678, A -0.308, V -0.925, Q -0.036, R -0.485, H 0.055, T -0.529, F -1.02, P -1.02, S -0.205, W -0.271, C -0.205, L -0.727, G -0.462, I -0.837, E -0.272, D -0.097, M -0.364
L49: Y -0.464, P -0.922, N -1.05, K -0.774, S -0.645, V -0.046, R -0.708, E -0.924, W -0.629, M -0.032, D -0.886, C -0.243, F -0.602, Q -0.583, G -0.954, I -0.026
F38: I -0.852, E -0.997, D -0.764, A -0.878, H -0.94, T -0.987, W -0.416, N -0.802, K -1.13, Y -0.479, V -0.787, P -0.941, M -0.722, G -0.845, Q -0.946, C -0.935, R -0.894
Y41: M -0.086, N 0.035, W -0.029, K 0.103, T 0.132, R 0.108, P -0.446, Q 0.105, V -0.025, F 0.162, L -0.045, G 0.07, H 0.028, I 0.076, E 0.042, S 0.118, C -0.019, A 0.134, D 0.055
K37: M -0.741, G -0.833, D -0.74, I -0.968, R -0.064, T -0.923, L -0.719, Q -0.359, A -0.996, H -0.32, P -0.948, C -0.612, N -0.567, S -0.616, W -0.635, E -0.757, F -0.218, Y -0.098
Y44: M 0.09, K 0.157, H -0.13, C 0.097, V 0.103, A -0.065, Q -0.206, I -0.015, S 0.135, N -0.111, P -0.473, R 0.171, G -0.767, F 0.006, L -0.05, T 0.039, E 0.012, D -0.468
L48: N -0.104, F -0.224, H -0.152, K -0.1, D -0.177, R -0.197, W -0.356, E -0.136, Y -0.247, A -0.049, P -0.077, V -0.354, I -0.408, Q -0.008, M -0.113, G -0.479, T -0.218
S50: D 0.026, C -0.08, N -0.217, Q -0.115, R -0.155, V -0.082, G -0.155, I -0.192, M -0.255, H 0.048, F -0.605, E -0.118, K 0.03, A 0.019, Y -0.437, T 0.059, W -0.585, L -0.523, P -0.548
V47: D -0.729, Q -0.714, F -0.636, S -0.926, C -0.296, T -0.966, L -0.433, Y -0.886, E -0.925, R -0.937, A -0.815, I -0.134, W -0.846, H -0.733, M -0.821, G -0.873, P -0.893
